# Test results reported in paper PMC2583361.
# Target: SSB C-terminal peptide (SSB-Ct peptide) (E. coli)
# Assay: ITC
# PriA DNA helicase, sequence (P17888 whole entry): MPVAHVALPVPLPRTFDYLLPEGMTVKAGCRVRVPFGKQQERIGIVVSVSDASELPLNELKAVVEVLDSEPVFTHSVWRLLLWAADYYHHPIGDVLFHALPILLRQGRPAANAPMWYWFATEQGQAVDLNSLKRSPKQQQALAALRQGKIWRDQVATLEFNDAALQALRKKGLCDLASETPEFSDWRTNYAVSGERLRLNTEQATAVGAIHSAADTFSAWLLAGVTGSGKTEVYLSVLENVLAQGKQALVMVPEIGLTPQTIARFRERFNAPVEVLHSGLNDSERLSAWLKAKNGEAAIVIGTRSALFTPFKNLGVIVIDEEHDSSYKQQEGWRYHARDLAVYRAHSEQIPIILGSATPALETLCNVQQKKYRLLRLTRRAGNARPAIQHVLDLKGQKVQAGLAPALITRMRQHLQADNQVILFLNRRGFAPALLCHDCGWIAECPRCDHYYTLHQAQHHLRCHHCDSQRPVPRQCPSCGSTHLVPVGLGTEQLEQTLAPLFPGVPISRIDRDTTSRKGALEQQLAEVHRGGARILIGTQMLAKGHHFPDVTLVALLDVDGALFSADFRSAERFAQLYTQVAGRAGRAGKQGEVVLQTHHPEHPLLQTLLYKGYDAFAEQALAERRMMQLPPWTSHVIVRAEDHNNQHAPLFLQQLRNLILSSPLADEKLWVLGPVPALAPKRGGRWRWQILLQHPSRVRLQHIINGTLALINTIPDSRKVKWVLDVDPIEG
# χ subunit of the DNA polymerase III holoenzyme, sequence (P28905 whole entry): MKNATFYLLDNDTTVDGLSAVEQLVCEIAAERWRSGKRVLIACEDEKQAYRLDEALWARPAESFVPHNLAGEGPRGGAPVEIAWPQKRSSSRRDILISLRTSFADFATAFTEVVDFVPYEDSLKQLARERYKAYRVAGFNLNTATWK
dH,Ka,Substance
-8.6 kcal/mol,,χ subunit of the DNA polymerase III holoenzyme (from UniProt P28905 1-147) (natural protein)
-6.9 kcal/mol,1.8e+06 M⁻¹,PriA DNA helicase (from UniProt P17888 1-732) (enzyme)
